Reference: PMC9882231 (bioRxiv, 2023)
“And” between values parts separate entries of the source, which are not always exact repeats. Identical values can stand only once.

B1: Ndel1^CC (human Ndel1 coiled-coil domain, residues 1-195), as used in Figure 4 (domain or fragment)
chain: MDGEDIPDFSSLKEETAYWKELSLKYKQSFQEARDELVEFQEGSRELEAELEAQLVQAEQRNRDLQADNQRLKYEVEALKEKLEHQYAQSYKQVSVLEDDLSQTRAIKEQLHKYVRELEQANDDLERAKRATIVSLEDFEQRLNQAIERNAFLESELDEKESLLVSVQRLKDEARDLRQELAVRERQQEVTRKSA
B2: Ndl1^CC (Ndl1 coiled-coil domain, residues 2-132) (domain or fragment)
chain: VPNLDLETAIQIISSLETQLSELEGATKEYENDLEQVISKLKSDLLESQQQNKCNKKQITDLEIQVDELENENIQLRNKIETLQLESDRRLERNVLLEHELLDTKEALQKLRVSKEEATSGETRRNTRSLP

Key:
mass photometry = biological target: the molecule itself; experiment: mass photometry
[1] = biological target: B2; experiment: mass photometry
[2] = biological target: yeast dynein^ΔICN complex (S. cerevisiae, UniProt P36022;P40960;Q04949;Q02647, HaloTag or SNAP ligand dye on the tag); experiment: TIRF microscopy microtubule recruitment assay
[3] = biological target: yeast dynein complex, wild-type (WT) (S. cerevisiae, UniProt P36022;P40960;Q04949;Q02647, HaloTag or SNAP ligand dye on the tag); experiment: TIRF microscopy microtubule recruitment assay
[4] = biological target: B1; experiment: mass photometry

Sequence of yeast dynein complex, wild-type (WT) (P36022 whole entry, chain 1 of 4): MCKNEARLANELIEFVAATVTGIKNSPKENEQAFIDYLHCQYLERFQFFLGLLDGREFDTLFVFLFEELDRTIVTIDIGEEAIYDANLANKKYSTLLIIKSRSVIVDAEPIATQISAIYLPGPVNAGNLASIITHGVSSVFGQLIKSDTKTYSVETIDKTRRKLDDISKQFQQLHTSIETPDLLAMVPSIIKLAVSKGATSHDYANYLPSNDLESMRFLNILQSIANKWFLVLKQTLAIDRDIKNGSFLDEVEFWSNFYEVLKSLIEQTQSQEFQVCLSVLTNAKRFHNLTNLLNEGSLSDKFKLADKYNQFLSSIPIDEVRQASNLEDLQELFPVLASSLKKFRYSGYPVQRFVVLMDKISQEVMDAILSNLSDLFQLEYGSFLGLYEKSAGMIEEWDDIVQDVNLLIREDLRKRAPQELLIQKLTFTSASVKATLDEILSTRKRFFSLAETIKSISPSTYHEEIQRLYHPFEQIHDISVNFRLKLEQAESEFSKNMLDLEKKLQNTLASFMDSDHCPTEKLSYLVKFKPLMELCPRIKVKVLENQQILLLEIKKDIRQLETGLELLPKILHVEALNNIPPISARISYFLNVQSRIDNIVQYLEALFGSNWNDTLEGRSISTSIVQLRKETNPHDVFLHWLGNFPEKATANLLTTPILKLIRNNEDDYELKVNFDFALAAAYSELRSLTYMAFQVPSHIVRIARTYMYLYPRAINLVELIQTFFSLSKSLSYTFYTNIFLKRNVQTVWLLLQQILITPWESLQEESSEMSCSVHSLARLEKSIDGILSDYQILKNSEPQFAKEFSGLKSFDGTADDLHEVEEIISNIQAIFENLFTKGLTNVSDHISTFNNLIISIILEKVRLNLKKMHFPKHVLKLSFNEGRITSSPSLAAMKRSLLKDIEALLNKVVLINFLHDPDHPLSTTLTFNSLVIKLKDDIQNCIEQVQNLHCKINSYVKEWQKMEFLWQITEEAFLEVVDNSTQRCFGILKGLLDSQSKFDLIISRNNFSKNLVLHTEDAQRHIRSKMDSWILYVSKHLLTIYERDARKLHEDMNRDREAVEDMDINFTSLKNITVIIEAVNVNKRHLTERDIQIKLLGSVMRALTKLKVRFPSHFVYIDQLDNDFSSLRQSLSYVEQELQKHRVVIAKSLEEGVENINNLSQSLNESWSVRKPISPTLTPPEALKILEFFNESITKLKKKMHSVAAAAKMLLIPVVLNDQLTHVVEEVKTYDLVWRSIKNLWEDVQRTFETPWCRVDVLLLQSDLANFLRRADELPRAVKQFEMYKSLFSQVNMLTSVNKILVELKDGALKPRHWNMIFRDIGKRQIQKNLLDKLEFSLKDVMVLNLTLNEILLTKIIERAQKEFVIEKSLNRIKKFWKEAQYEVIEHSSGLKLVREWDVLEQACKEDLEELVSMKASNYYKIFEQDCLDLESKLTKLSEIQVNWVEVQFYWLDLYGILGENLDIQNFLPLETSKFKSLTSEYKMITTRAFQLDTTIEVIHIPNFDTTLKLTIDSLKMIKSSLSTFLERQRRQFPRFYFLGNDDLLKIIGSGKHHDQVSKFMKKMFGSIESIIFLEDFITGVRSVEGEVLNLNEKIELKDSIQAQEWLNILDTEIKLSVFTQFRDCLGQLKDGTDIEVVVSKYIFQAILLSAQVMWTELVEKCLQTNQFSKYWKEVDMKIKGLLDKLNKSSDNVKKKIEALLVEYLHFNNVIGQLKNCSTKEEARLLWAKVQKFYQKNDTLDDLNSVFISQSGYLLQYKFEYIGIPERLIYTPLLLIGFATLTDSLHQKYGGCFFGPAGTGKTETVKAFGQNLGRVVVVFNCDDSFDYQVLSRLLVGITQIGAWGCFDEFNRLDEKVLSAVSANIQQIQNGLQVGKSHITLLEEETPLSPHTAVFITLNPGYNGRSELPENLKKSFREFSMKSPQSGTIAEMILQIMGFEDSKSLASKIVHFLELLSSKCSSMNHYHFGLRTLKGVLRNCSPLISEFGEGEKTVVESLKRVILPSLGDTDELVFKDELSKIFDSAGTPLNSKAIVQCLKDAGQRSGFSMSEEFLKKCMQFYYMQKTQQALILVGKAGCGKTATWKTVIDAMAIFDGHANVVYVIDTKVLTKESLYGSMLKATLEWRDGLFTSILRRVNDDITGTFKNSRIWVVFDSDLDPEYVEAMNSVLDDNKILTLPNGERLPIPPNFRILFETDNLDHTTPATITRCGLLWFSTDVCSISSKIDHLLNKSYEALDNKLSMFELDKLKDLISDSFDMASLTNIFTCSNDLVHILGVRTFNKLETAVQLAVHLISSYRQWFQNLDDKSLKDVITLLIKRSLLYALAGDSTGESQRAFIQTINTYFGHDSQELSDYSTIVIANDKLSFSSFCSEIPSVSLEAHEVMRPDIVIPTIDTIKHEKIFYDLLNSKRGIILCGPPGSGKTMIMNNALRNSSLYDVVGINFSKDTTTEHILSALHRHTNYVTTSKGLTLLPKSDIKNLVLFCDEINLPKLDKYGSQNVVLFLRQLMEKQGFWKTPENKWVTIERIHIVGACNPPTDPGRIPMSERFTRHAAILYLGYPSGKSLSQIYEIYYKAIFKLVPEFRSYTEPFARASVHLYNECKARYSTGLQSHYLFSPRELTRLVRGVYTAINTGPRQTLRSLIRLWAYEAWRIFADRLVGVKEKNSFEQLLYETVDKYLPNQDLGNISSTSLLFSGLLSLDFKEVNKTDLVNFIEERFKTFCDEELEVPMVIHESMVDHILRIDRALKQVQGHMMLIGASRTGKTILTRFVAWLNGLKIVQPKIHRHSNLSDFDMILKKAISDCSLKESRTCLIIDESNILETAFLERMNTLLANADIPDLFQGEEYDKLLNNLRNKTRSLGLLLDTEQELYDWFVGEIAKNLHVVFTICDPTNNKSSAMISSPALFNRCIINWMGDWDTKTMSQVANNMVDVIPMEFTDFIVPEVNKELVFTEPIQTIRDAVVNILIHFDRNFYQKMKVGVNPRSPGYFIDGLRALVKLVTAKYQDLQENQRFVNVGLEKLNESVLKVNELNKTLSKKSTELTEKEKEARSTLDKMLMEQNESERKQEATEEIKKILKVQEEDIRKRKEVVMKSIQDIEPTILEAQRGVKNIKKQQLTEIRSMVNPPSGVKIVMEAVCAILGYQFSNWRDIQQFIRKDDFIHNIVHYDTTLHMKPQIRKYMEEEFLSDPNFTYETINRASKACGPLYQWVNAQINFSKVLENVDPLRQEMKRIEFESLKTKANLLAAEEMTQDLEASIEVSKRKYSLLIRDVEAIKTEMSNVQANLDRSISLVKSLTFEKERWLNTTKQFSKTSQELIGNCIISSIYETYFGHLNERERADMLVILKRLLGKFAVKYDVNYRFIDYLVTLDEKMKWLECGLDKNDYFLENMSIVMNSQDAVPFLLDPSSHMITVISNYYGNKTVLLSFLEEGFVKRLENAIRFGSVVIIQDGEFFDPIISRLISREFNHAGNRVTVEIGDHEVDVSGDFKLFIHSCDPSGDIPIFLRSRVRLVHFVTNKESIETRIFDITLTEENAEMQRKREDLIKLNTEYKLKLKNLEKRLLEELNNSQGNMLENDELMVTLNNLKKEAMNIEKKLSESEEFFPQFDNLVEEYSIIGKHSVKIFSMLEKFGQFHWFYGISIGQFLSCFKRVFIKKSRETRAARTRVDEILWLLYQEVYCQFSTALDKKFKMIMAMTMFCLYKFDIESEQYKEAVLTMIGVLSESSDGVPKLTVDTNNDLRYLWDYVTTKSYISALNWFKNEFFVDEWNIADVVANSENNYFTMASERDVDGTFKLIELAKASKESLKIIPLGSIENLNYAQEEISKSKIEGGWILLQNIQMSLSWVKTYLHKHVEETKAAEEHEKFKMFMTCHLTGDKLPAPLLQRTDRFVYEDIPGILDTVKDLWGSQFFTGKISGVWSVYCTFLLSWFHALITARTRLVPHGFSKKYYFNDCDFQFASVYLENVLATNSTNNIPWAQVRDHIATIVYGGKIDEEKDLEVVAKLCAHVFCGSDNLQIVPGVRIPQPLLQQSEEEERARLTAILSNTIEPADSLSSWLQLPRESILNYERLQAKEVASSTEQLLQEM
Sequence of yeast dynein complex, wild-type (WT) (P40960 whole entry, chain 2 of 4): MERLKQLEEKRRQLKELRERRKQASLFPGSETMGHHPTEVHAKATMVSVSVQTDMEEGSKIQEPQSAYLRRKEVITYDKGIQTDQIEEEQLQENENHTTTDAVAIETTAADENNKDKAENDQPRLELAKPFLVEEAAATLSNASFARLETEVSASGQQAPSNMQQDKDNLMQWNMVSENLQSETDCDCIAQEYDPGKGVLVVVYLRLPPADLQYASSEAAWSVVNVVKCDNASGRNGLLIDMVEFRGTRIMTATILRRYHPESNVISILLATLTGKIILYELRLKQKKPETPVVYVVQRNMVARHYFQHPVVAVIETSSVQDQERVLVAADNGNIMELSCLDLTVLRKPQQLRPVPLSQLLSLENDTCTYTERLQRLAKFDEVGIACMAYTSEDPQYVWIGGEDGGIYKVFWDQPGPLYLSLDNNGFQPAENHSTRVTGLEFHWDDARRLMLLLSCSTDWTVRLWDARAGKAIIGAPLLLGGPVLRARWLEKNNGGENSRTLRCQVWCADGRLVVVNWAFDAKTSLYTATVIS
Sequence of yeast dynein complex, wild-type (WT) (Q04949 whole entry, chain 3 of 4): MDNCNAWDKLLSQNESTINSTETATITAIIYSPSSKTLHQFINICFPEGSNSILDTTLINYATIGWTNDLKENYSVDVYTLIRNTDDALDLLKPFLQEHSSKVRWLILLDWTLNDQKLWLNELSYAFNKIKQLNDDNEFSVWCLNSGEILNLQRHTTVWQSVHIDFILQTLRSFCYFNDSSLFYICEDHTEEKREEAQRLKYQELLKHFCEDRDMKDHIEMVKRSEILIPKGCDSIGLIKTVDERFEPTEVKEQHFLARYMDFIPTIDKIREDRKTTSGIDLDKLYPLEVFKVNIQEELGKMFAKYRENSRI
Sequence of yeast dynein complex, wild-type (WT) (Q02647 whole entry, chain 4 of 4): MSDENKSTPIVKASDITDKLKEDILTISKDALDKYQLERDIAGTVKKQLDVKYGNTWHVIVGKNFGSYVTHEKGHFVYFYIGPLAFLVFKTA

| Binder | stoichiometry N (mass photometry) | binding result [3] | further results |
| --- | --- | --- | --- |
| B1 | 2 |  |  |
| Pac1, full-length, with C-terminal FLAG-SNAPf (natural protein, SNAP-tag ligand dye on the SNAPf tag where labelled) MTNWQQQLPLTDTQKNELDKSVLRYLNWNYKQTVRHEHAQDYESVRHAIVTLSGFLLQESVDRQEFISNNDTSNESMVDIDELLLPKKWNSIVRLQKKIIELEQNTETLVSQIKDLNTQVSELAQFKPTTSNGTSAHNVLKWIPRNLPSCLINVESSVTSVKLHPNLPIVFVATDHGKLYAFDLFNYTIPLASLQSHTKAITSMDVLFTNYTNSSKKNYLVIVTASKDLQIHVFKWVSEECKFQQIRSLLGHEHIVSAVKIWQKNNDVHIASCSRDQTVKIWDFHNGWSLKTFQPHSQWVRSIDVLGDYIISGSHDTTLRLTHWPSGNGLSVGTGHEFPIEKVKFIHFIEDSPEIRFRTPSTDRYKNWGMQYCVSASRDRTIKIWEIPLPTLMAHRAPIPNPTDSNFRCVLTLKGHLSWVRDISIRGQYLFSCADDKSVRCWDLNTGQCLHVWEKLHTGFVNCLDLDVDFDSNVTPRQMMVTGGLDCKSNVFMR | 2 | binds | stoichiometry N [1]: 1 and 2 Pac1:Ndl1; binding result [2]: binds |
| Ndl1, full-length, with C-terminal FLAG-SNAPf (natural protein, JFX554 or JFX650 SNAP-tag ligand on the SNAPf tag) MVPNLDLETAIQIISSLETQLSELEGATKEYENDLEQVISKLKSDLLESQQQNKCNKKQITDLEIQVDELENENIQLRNKIETLQLESDRRLERNVLLEHELLDTKEALQKLRVSKEEATSGETRRNTRSLPSQNKKMKLFKDTIKVSTTSSTLYLQNMAKTNNAARSHCNIPNTQITQSTVIATTSSV |  | binds |  |
| Nip100^CC1 (Nip100 coiled-coil, residues 97-377) with eGFP (domain or fragment) EHSLLNGNAAQETIKNLQVKCESLASKLNKIKIENHELKTSVEKLSTNETVLLSKISRLDKLVKELKVENGNMKTHLDNFNHLLDASDSVMAPDLDKGTLLERSHLLQGLLDQTKLSYDKAMKVQEDLLEENTQLLEENAVLSKKISDLGLQLQQTNNTIGDLALQIEAQSKSSNIVDKLTNDNILLTSNIKALNNELEELQAKEKLDENLRITYEQLEQELRLQLSNLQSALENEKEIAGTYIEENSRLKATLESIEAKTSHKFQSLELKVNTLQEELYQ |  | binds |  |
| LIS1, wild-type (natural protein) MVLSQRQRDELNRAIADYLRSNGYEEAYSVFKKEAELDVNEELDKKYAGLLEKKWTSVIRLQKKVMELESKLNEAKEEFTSGGPLGQKRDPKEWIPRPPEKYALSGHRSPVTRVIFHPVFSVMVSASEDATIKVWDYETGDFERTLKGHTDSVQDISFDHSGKLLASCSADMTIKLWDFQGFECIRTMHGHDHNVSSVAIMPNGDHIVSASRDKTIKMWEVQTGYCVKTFTGHREWVRMVRPNQDGTLIASCSNDQTVRVWVVATKECKAELREHEHVVECISWAPESSYSSISEATGSETKKSGKPGPFLLSGSRDKTIKMWDVSTGMCLMTLVGHDNWVRGVLFHSGGKFILSCADDKTLRVWDYKNKRCMKTLNAHEHFVTSLDFHKTAPYVVTGSVDQTVKVWECR |  |  | stoichiometry N [4]: 1 |
| B2 | 2 | binds |  |
